{"source": "paper PMC2892782", "origin": "cited, not measured here", "target": "Lys41 (UniProt position 67, TKDRCKPVNTF)", "test": "NMR"}
{"substance": "Ribonuclease A (bovine pancreatic ribonuclease) (Bos taurus)", "values": [{"measurement": "pKa", "value": "8.6-9.1"}]}
